In PMC7057333:
Like-named read-outs stand apart in the source and are kept apart here.

Legend:
[1] = biological target: LSD1_(172-833), lysine-specific demethylase 1 (human) (UniProt O60341); experiment: enzyme inhibition kinetics (HRP-coupled fluorescence demethylation assay); 25 nM LSD1, substrate H3K4me1_(1-21), 25 mM Tris, 50 mM NaCl, 0.1 mg/mL BSA, pH 8, 1% DMSO; Ki by global fit of competitive inhibition for 1, 11, 24, 28, 31, 33, 34, else from IC50 by Cheng-Prusoff (substrate 20 μM)
[2] = biological target: LSD1_(172-833), lysine-specific demethylase 1 (human) (UniProt O60341)
[3] = biological target: LSD1_(172-833), lysine-specific demethylase 1 (human) (UniProt O60341); remark: listed apart in the source

Substance | Ki [1] [µM] | % inhibition of LSD1 demethylase activity at 100 μM peptide [2] [%] | % inhibition of LSD1 demethylase activity at 100 μM peptide [3] [%] | IC50 of inhibition of LSD1 demethylase activity [3] [µM]
lactam 30 (A1P-substituted lactam 28) (peptide) | 22 | 75 | – | –
peptide 20, linear precursor of 21 (allylglycine at positions 3 and 6 of H3_(1-11) K4M) | – | – | 95 | 10
lactam 32 (D-Glu3-Lys6 lactam-bridged H3_(1-11) K4M) (peptide) | > 100 | < 20 | – | –
lactam 27 (Lys3-Glu6 lactam-bridged H3_(1-11) K4M) (peptide) | 31 | 65 | – | –

Continued by falling Ki [1], values first:

Ki [1] [µM] | % inhibition of LSD1 demethylase activity at 100 μM peptide [2] [%] | % inhibition of LSD1 demethylase activity at 100 μM peptide [3] [%] | IC50 of inhibition of LSD1 demethylase activity [3] [µM] | Substance
7 | 90 | – | – | lactam 29 (A1P-substituted lactam 27) (peptide)
4 | 98 | – | – | lactam 28 (Glu3-Lys6 lactam-bridged H3_(1-11) K4M) (peptide)
2.3 | 100 | – | – | macrocycle 31 (D-Lys3-Glu6 lactam-bridged H3_(1-11) K4M) (peptide)
